Results taken from patent US20220356229A1.
Several values for one entry are separate records, joined by “and”; a condition that tells them apart may be missing. Equal entries are not always repeated.

Each binder was assayed against T1, SARS-CoV-2 Spike (S) protein, wild type, full length (SARS-CoV-2), P0DTC2. Conditions: remark: other sources report otherwise.

| Binder | median fluorescence, fold over isotype control (fold over isotype) | fold over isotype (median fluorescence intensity) (fold over isotype) |
| --- | --- | --- |
| antibody 521 (antibody, V domains shown) VH: QVQLVESGGGVVQPGRSLRLSCAASGFTFSSYGMHWVRQAPGKGLEWVAVIWYDGSNKYYADSVKGRFTISRDNSKNTLYLQMNSLRAEDTAVYYCAREGNDYGDYGEWELLGYFDYWGQGTLVTVSS VL: SYELTQPPSVSVSPGQTARITCSGDALPKKYAYWYQQKSGQAPVLVIYEDSKRPSGIPERFSGSSSGTMATLTISGAQVEDEADYYCYSTDSSGNHRRVFGGGTKLTVL | 0.86 | – |
| antibody 322 (antibody, V domains shown) VH: EVQLVESGGGLVQPGGSLRLSCAASGFTFSSYWMSWVRQAPGKGLEWVANIKQDGSEKYYVDSVKGRFTISRDNAKNSLYLQMNSLRAEDTAVYYCARDEDVAAALDYWGQGTLVTVSS VL: SYVLTQPPSVSVAPGKTARITCGGNNIGSKSVHWYQQKPGQAPVLVIYYDSDRPSGIPERFSGSNSGNTATLTISRVEAGDEADYYCQVWDSSSDHPERVFGGGTKLTVL | – | 1.65 |
| antibody 493 (antibody, V domains shown) VH: EVQLVESGGGLIQPGRSLRLSCAASGFTVSITYMSWVRQAPGKGLEWVSLIYSGGSSYYADSVKGRFTISRDNSKNTLYLQMNSLRAEDTAVYYCATTMVRGVIISYYYGMDVWGQGTTVTVSS VL: QSALTQPASVSGSPGQSITISCTGTSSDVGGYNYVSWYQQHPGKAPKLMIYEVSNRPSGVSNRFSGSKSGNTASLTISGLQAEDEADYYCSSYTSSSTLVFGGGTKLTVL | 1.1 | – |
| antibody 362 (antibody, V domains shown) VH: QVQLVESGGGVVQPGRSLRLSCAASGFNLSNYAMHWVRQASGKGLEWVSLISYDGSVKYYTDSVKGRFTVSGDNSKNTLFLQMNSLRPDDSALYYCVRGGVSGPNSFDMWGQGTTVTVSS VL: DVVMTQSPLSLPVTLGQPATISCRSSQSLVYSDGNTYVNWFQQRPGQSPRRLIYQVSIRASGVPDRFSGSGSGTDFALKISRVEAEDVGVYYCMQGTHWPVTFGQGTKVEIK | – | 9.45 |
| antibody 325 (antibody, V domains shown) VH: QVQLQESGPGLVKPSQTLSLTCTVSGGSISGGGYYWSWIRQHPGKGLEWIGYIYYSGSTYYNPSLQSRVTISVDTSKNQFSLKLSSVTAADTAVYYCARVGTSSVWYFDYWGQGTLVTVSS VL: QSALTQPRSVSGSPGQSVTISCTGTSSDVGGYNYVSWYQQHPGKAPKLMIYDVTKRPSGVPDRFSGSKSGNTASLTISGLQAEDEADYYCSSYAGSWVFGGGTKLTVL | – | 1.08 |

These binders were tested against full length Spike of WIV1 (WIV1). Conditions: not given.

| Binder | fold over isotype control (median fluorescence) (fold over isotype) |
| --- | --- |
| anti-SARS-CoV-2 antibody 318 (antibody, V domains shown) VH: QVQLVESGGGVVPPGRSLSLPCAASGFSFSAYAMHWLRQAPGKGLEWVAVISYDGTVKYVADSVRGRFTISRDNSNNTLYLQMTSLRSDDTAVYYCARDLGALAAAPTVYFVHWGQGTLVTVSS VL: SYVLTQPPSVSVAPGKTATITCAGEDIGRKSVHWYQQKPGQAPVLVIFYYSDRPSGIPDRFSGSVSGNTATLTIGRVEAGDEADYFCQVWDRTTNHVIFGGGTKVTVL | 291 and 166 |
| anti-SARS-CoV-2 antibody 304 (antibody, V domains shown) VH: EVQLLESGGGLVQPGGSLRLSCAASGFTFSTYAMSWVRQAPGKGLEWVSAISGSGGSTYYADSVKGRFTISRDNSKNTLYLQMNSLRAEDTAVYYCASGYSPDYWGQGTLVTVSS VL: AIQMTQSPSSLSASVGDRVTITCRASQGIRNDLGWYQQKPGKAPKLLIYAASSLQSGVPSRFSGSGSGTDFTLTISSLQPEDFATYYCLQDYNYPRTFGQGTKVEIK | 1.01 and 1.04 |
| anti-SARS-CoV-2 antibody 311 (antibody, V domains shown) VH: QVQLQESGPGLVKPSETLSLTCTVSGYSISSGYYWGWIRQPPGKGLEWIGSIYHSGSTYYNPSLKSRVTISVDTSKNQFSLKLSSVTAADTAVYYCAREETLGSSWYESYIDYWGQGTLVTVSS VL: SYVLTQPPSVSVAPGKTARITCGGNNIGSKSVHWYQQKPGQAPVLVIYYDSDRPSGIPERFSGSNSGNTATLTISRVEAGDEADYYCQVWDSSSDHPRVFGGGTKLTVL | 1.11 and 1.14 |
| anti-SARS-CoV-2 antibody 319 (antibody, V domains shown) VH: QVQLVESGGGVVQPGRSLRLSCAASGFNLSNYAMHWVRQASGKGLEWVSLISYDGSIKYYTDSVKGRFTVSGDNSKNTLFLQMNSLRPDDSALYYCVRGGVSGPNSFDMWGQGTTVTVSS VL: DVVMTQSPLSLPVTLGQPASISCRSSQSLVYSDGNTYVNWFQQRPGQSPRRLIYQVSIRASGVPDRFSGSGSGTDFALKISRVEAEDVGVYYCMQGTHWPVTFGQGTKVEIK | 96.2 |
| anti-SARS-CoV-2 antibody 316 (antibody, V domains shown) VH: QVHLVESGGGVVQPGRSLRLSCAASGFTLTAYAMHWVRQAPGKRLEWVALISYDGSVKKYADSVKGRITVSGDTSTNTLHLQMNSLRADDTAVYYCVRGGVSGPNSFDLWGQGTMVTVSS VL: DVVMTQSPLSLPVTLGQPASMSCRSSQSLEYSDGNTYVNWFHQRPGQSPRRLIYKVSYRDSGVPDRFSGSGSGTDFTLQISRVEAEDVGIYYCMQGTHWPVTFGQGTKVEIK | 93.8 |
| anti-SARS-CoV-2 antibody 315 (antibody, V domains shown) VH: QVQLVQSGSELKKPGASVKLSCQASGYSFTNHAMNWVRQAPGQGLEWMGWINTNTGNPTYAQGFTGRFVFSLDTSVSTTYLHISSLKAEDTAVYYCARASARPGVATNLDFWGQGTLVVVSS VL: DIQMTQSPSSLSASVGDRVTITCRASQNIDNYLNWYQQKPGKAPKLLIYAASRLHSGVPSRFSGSGSGTDFTLIISSLQPEDLATYYCQQSYSNPLTFGPGTKVDIR | 1.09 |

Molecular target: T1, SARS-CoV-2 Spike (S) protein, wild …
Conditions: remark: other sources report otherwise
Remark: another data set of the same source

| Binder | bead binding signal (fold over isotype) (fold over isotype) |
| --- | --- |
| antibody 259 (antibody, V domains shown) VH: EVQLVQSGAEVKKPGATVKISCKVSGYTFTDYYMHWVQQAPGKGLEWMGLVDPEDGETIYAEKFQGRVTITADTSTDTAYMELSSLRSEDTAVYYCATDLLSWKLYCSGGSCPQMDVWGQGTTVTVSS VL: DIQMTQSPSSLSASVGDRVTITCRASQGIRNDLGWYQQKPGKAPKRLIYAASSLQSGVPSRFSGSGSGTEFTLTISSLQPEDFATYYCLQHNSYPQTFGQGTKLEIK | 275 |

These binders were tested against SARS-CoV-2 full length Spike protein, wild type (SARS-CoV-2), P0DTC2. Conditions: remark: other sources report otherwise.

| Binder | fold over isotype control (median fluorescence) (fold over isotype) | median fluorescence fold over isotype (fold over isotype control) | bead binding signal (fold over isotype) (fold over isotype) |
| --- | --- | --- | --- |
| antibody 396 (antibody, V domains shown) VH: QVQLQQWGAGLLKPSETLSLTCAVYGGSFSGYYWSWIRQPPGKGLEWIGEIIHSGSTNYNPSLKSRVTISVDTSKNQFSLKLSSVTAADTAVYYSARRTGLLWFREGSYYFDYWGQGTLVTVSS VL: DIQMTQSPSSLSASVGDRVTITCRASQGIRNDLGWYQQKPGKAPKRLIYAASSLQSGVPSRFSGSGSGTEFTLTISSLQPEDFATYYCLQHNSYPLTFGGGTKVEIK | 553 | – | – |
| antibody 392 (antibody, V domains shown) VH: QVQLQESGPGLVKPSGTLSLTCAVSGGSISSSNWWSWVRQPPGKGLEWIGEIYHSGSTNYNPSLKSRVTISVDKSKNQFSLKLSSVTAADTAVYYCARGWRATLYGMDVWGQGTTVTVSS VL: QSALTQPASVSGSPGQSITISCTGTSSDVGSYNLVSWYQQHPGKAPKLMIYEVSKRPSGVSNRFSGSKSGNTASLTISGLQAEDEADYYCCSYAGSSTWVFGGGTKLTVL | 509 | – | – |
| antibody 413 (antibody, V domains shown) VH: EVQLVESGGGLIQPGGSLRLSCAASGFTVSGNYMNWVRQAPGKGLEWVSVIYSGGSTYYADSVKGRFTISRANSKNTLYLQMNSLRAEDTAVYYCASTSLVRGLIILYYYGMDVWGQGTTVTVSS VL: QSALTQPASVSGSPGQSITISCTGTSSDVGGYNYVSWYQQHPGKAPKLMIYEVSNRPSGVSNRFSGSKSGNTASLTISGLQAEDEADYYCSSYTSSSTLVFGGGTKLTVL | – | 969 and 367 and 416 | – |
| antibody 390 (antibody, V domains shown) VH: EVQLVESGGGLIQPGGSLRLSCAASGFTVSSNYMSWVRQAPGKGLEWVSIIYSGGSTYYADSVKGRFTISRDNSKNTLYLQMNSLRAEDSAVYSCATTMVRGLIISYYYGMDVWGQGTTVTVSS VL: QSALTQPASVSGSPGQSITISCTGTSSDVGGYNYVSWYQQHPGKAPKLMIYEVSNRPSGVSNRFSGSKSGNTASLTISGLQAEDEADYYCSSYTSSSTLVFGGGTKLTVL | 637 and 341 and 318 | – | – |
| antibody 337 (antibody, V domains shown) VH: QVQLVESGGGVVQPGRSLRLSCAASGFTFSSYGMHWVRQAPGKGLEWVAIIWYDGSNKYYADSVKGRFTISRDNSKNTLYLQMNSLRAEDTAVYYCAKDTGGYCSGGSCYPESYFDYWGQGTLVTVSS VL: SYVLTQPPSVSVAPGKTARITCGGNNIGSKSVHWYQQKPGQAPVLVIYYDSDRPSGIPERFSGSNSGNTATLTINRVEAGDEADYYCQVWDGSSDHLYVFGTGTKVTVL | – | – | 756 |
| antibody 362 (antibody, V domains shown) VH: QVQLVESGGGVVQPGRSLRLSCAASGFNLSNYAMHWVRQASGKGLEWVSLISYDGSVKYYTDSVKGRFTVSGDNSKNTLFLQMNSLRPDDSALYYCVRGGVSGPNSFDMWGQGTTVTVSS VL: DVVMTQSPLSLPVTLGQPATISCRSSQSLVYSDGNTYVNWFQQRPGQSPRRLIYQVSIRASGVPDRFSGSGSGTDFALKISRVEAEDVGVYYCMQGTHWPVTFGQGTKVEIK | – | – | 503 |
| antibody 452 (antibody, V domains shown) VH: QVQLVESGGGLVKPGGSLRLSCAASGFTFSDYYLSWIRQAPGKGLEWVSYISSSGSNIYYADSVKGRFTISRDNAKNSLYLQMNSLRADDTAVFYCARAGRYCSGGSCRVEYFQHWGQGTLVTVSS VL: SYELTQPPSVSVSPGQTARITCSGDALPKQYAYWYQQKPGQAPVLVIYKDNERPSGIPERFSGSSSGTTATLTISGVQAEDEADYYCQSADSSGTVVFGGGTKLTVL | – | 854 | – |
| antibody 416 (antibody, V domains shown) VH: EVQLVESGGGLVQPGRSLRLSCAASGFTFDDYAMHWVRQAPGKGLEWVSGISWNSGSIGYADSVKGRFTISRDNAKNSLYLQMNSLRAEDTALYYCAKDLAWLSGGMDVWGQGTTVTVSS VL: not shown | – | 110 | – |
| antibody 315 (antibody, V domains shown) VH: QVQLVQSGSELKKPGASVKLSCQASGYSFTNHAMNWVRQAPGQGLEWMGWINTNTGNPTYAQGFTGRFVFSLDTSVSTTYLHISSLKAEDTAVYYCARASARPGVATNLDFWGQGTLVVVSS VL: DIQMTQSPSSLSASVGDRVTITCRASQNIDNYLNWYQQKPGKAPKLLIYAASRLHSGVPSRFSGSGSGTDFTLIISSLQPEDLATYYCQQSYSNPLTFGPGTKVDIR | – | – | 592 |
